# B1: NIH45-46^G54Y IgG (antibody, name in Kabat numbering, V domains shown)
# VH: QVRLSQSGGQMKKPGESMRLSCRASGYEFLNCPINWIRLAPGRRPEWMGWLKPRYGAVNYARKFQGRVTMTRDVYSDTAFLELRSLTSDDTAVYFCTRGKYCTARDYYNWDFEHWGRGAPVTVSS
# VL: EIVLTQSPATLSLSPGETAIISCRTSQSGSLAWYQQRPGQAPRLVIYSGSTRAAGIPDRFSGSRWGADYNLSISNLESGDFGVYYCQQYEFFGQGTKVQVDI
# B2: NIH45-46^G54W IgG (antibody, name in Kabat numbering, V domains shown)
# VH: QVRLSQSGGQMKKPGESMRLSCRASGYEFLNCPINWIRLAPGRRPEWMGWLKPRWGAVNYARKFQGRVTMTRDVYSDTAFLELRSLTSDDTAVYFCTRGKYCTARDYYNWDFEHWGRGAPVTVSS
# VL: EIVLTQSPATLSLSPGETAIISCRTSQSGSLAWYQQRPGQAPRLVIYSGSTRAAGIPDRFSGSRWGADYNLSISNLESGDFGVYYCQQYEFFGQGTKVQVDI
# Columns and labels:
# Test in all cases: cell-based or functional assay
# [1] = target: HIV-1 Env of strain 0815.v3.c3 (HIV-1)
# [2] = target: HIV-1 strain CNE53 envelope (gp120) (HIV-1)
# [3] = target: HIV-1 strain 231966.c02 envelope (gp120) (HIV-1)
# [4] = target: HIV-1 Env of strain 6535.3 (HIV-1)
# [5] = target: HIV-1 Env of strain Du422.1 (HIV-1)
# [6] = target: HIV-1 strain 620345.c01 envelope (gp120) (HIV-1)
# [7] = target: HIV-1 Env of strain CNE20 (HIV-1)
# [8] = target: HIV-1 strain Du422.1 envelope (gp120) (HIV-1)
# [9] = target: HIV-1 Env of strain 6480.v4.c25 (HIV-1)
# [10] = target: HIV-1 strain CAP210.2.00.E8 envelope (gp120) (HIV-1)
# [11] = target: HIV-1 Env of strain C3347.c11 (HIV-1)
# [12] = target: HIV-1 Env of strain AC10.0.29 (HIV-1)
# [13] = target: HIV-1 strain 62357_14_D3_4589 envelope (gp120) (HIV-1)
# [14] = target: HIV-1 strain REJO4541.67 envelope (gp120) (HIV-1)
# [15] = target: HIV-1 strain CNE30 envelope (gp120) (HIV-1)
# [16] = target: HIV-1 Env of strain CNE21 (HIV-1)
# [17] = target: HIV-1 strain P1981_C5_3 envelope (gp120) (HIV-1)
# [18] = target: HIV-1 strain 211-9 envelope (gp120) (HIV-1)
# [19] = target: HIV-1 Env of strain Ce0682_E4 (HIV-1)
# [20] = target: HIV-1 Env of strain 0330.v4.c3 (HIV-1)
# [21] = target: HIV-1 Env of strain TROJO4551.58 (HIV-1)
# [22] = target: HIV-1 Env of strain ZM249M.PL1 (HIV-1)
# [23] = target: HIV-1 Env of strain X1193_c1 (HIV-1)
# [24] = target: HIV-1 Env of strain C1080.c03 (HIV-1)
# [25] = target: HIV-1 Env of strain 1054_07_TC4_1499 (HIV-1)
# [26] = target: HIV-1 Env of strain 928-28 (HIV-1)
# [27] = target: HIV-1 strain T250-4 envelope (gp120) (HIV-1)
# [28] = target: HIV-1 strain CNE21 envelope (gp120) (HIV-1)
# [29] = target: HIV-1 strain Ce2060_G9 envelope (gp120) (HIV-1)
# [30] = target: HIV-1 Env of strain 1056_10_TA11_1826 (HIV-1)
# [31] = target: HIV-1 strain 89-F1_2_25 envelope (gp120) (HIV-1)
# [32] = target: HIV-1 strain CNE58 envelope (gp120) (HIV-1)
# [33] = target: HIV-1 strain T255-34 envelope (gp120) (HIV-1)
# [34] = target: HIV-1 Env of strain T250-4 (HIV-1)
# [35] = target: HIV-1 Env of strain Du156.12 (HIV-1)
# [36] = target: HIV-1 Env of strain 211-9 (HIV-1)
# [37] = target: HIV-1 strain 3817.v2.c59 envelope (gp120) (HIV-1)
# [38] = target: HIV-1 Env of strain 3301.v1.c24 (HIV-1)
# [39] = target: HIV-1 Env of strain CNE53 (HIV-1)
# [40] = target: HIV-1 strain 0330.v4.c3 envelope (gp120) (HIV-1)
# [41] = target: HIV-1 strain CNE17 envelope (gp120) (HIV-1)
# [42] = target: HIV-1 strain 1054_07_TC4_1499 envelope (gp120) (HIV-1)
# [43] = target: HIV-1 strain TRO.11 envelope (gp120) (HIV-1)
# [44] = target: HIV-1 Env of strain 231966.c02 (HIV-1)
# [45] = target: HIV-1 Env of strain P1981_C5_3 (HIV-1)
# [46] = target: HIV-1 Env of strain 231965.c01 (HIV-1)
# [47] = target: HIV-1 Env of strain C2101.c01 (HIV-1)
# [48] = target: HIV-1 strain Du156.12 envelope (gp120) (HIV-1)
# [49] = target: HIV-1 Env of strain ZM247v1(Rev-) (HIV-1)
# [50] = target: HIV-1 strain WEAU_d15_410_787 envelope (gp120) (HIV-1)
binder,measurement,setting,value
B1,neutralization IC50,[1],< 0.001 µg/mL
same,neutralization IC80,[2],0.027 µg/mL
same,neutralization IC80,[3],0.23 µg/mL
same,neutralization IC50,[4],0.08 µg/mL
same,neutralization IC50,[5],> 50 µg/mL
same,neutralization IC80,[6],> 50 µg/mL
same,neutralization IC50,[7],0.33 µg/mL
same,neutralization IC80,[8],> 50 µg/mL
same,neutralization IC50,[9],0.018 µg/mL
same,neutralization IC80,[10],> 50 µg/mL
same,neutralization IC50,[11],0.011 µg/mL
same,neutralization IC50,[12],0.19 µg/mL
same,neutralization IC80,[13],0.09 µg/mL
same,neutralization IC80,[14],0.02 µg/mL
same,neutralization IC80,[15],0.263 µg/mL
same,neutralization IC50,[16],0.07 µg/mL
same,neutralization IC80,[17],0.09 µg/mL
same,neutralization IC80,[18],> 50 µg/mL
same,neutralization IC50,[19],0.017 µg/mL
same,neutralization IC50,[20],0.03 µg/mL
same,neutralization IC50,[21],0.03 µg/mL
same,neutralization IC50,[22],0.003 µg/mL
same,neutralization IC50,[23],0.006 µg/mL
same,neutralization IC50,[24],0.29 µg/mL
same,neutralization IC50,[25],0.064 µg/mL
same,neutralization IC50,[26],0.12 µg/mL
same,neutralization IC80,[27],> 50 µg/mL
same,neutralization IC80,[28],0.29 µg/mL
same,neutralization IC80,[29],0.068 µg/mL
same,neutralization IC50,[30],0.044 µg/mL
same,neutralization IC80,[31],> 50 µg/mL
same,neutralization IC80,[32],0.11 µg/mL
same,neutralization IC80,[33],0.174 µg/mL
same,neutralization IC50,[34],> 50 µg/mL
same,neutralization IC50,[35],0.007 µg/mL
same,neutralization IC50,[36],> 50 µg/mL
same,neutralization IC80,[37],> 50 µg/mL
same,neutralization IC50,[38],0.003 µg/mL
same,neutralization IC50,[39],0.006 µg/mL
same,neutralization IC80,[40],0.09 µg/mL
same,neutralization IC80,[41],0.264 µg/mL
same,neutralization IC80,[42],0.236 µg/mL
same,neutralization IC80,[43],0.22 µg/mL
same,neutralization IC50,[44],0.06 µg/mL
same,neutralization IC50,[45],0.04 µg/mL
same,neutralization IC50,[46],0.025 µg/mL
same,neutralization IC50,[47],0.09 µg/mL
same,neutralization IC80,[48],0.026 µg/mL
same,neutralization IC50,[49],0.42 µg/mL
same,neutralization IC80,[50],0.008 µg/mL
B2,neutralization IC50,[1],< 0.001 µg/mL
same,neutralization IC80,[2],0.005 µg/mL
same,neutralization IC80,[3],0.11 µg/mL
same,neutralization IC50,[4],0.03 µg/mL
same,neutralization IC50,[5],> 50 µg/mL
same,neutralization IC80,[6],> 50 µg/mL
same,neutralization IC50,[7],0.04 µg/mL
same,neutralization IC80,[8],> 50 µg/mL
same,neutralization IC50,[9],0.004 µg/mL
same,neutralization IC80,[10],> 50 µg/mL
same,neutralization IC50,[11],< 0.001 µg/mL
same,neutralization IC50,[12],0.13 µg/mL
same,neutralization IC80,[13],0.07 µg/mL
same,neutralization IC80,[14],0.013 µg/mL
same,neutralization IC80,[15],0.196 µg/mL
same,neutralization IC50,[16],0.03 µg/mL
same,neutralization IC80,[17],0.07 µg/mL
same,neutralization IC80,[18],> 50 µg/mL
same,neutralization IC50,[19],0.01 µg/mL
same,neutralization IC50,[20],0.03 µg/mL
same,neutralization IC50,[21],0.01 µg/mL
same,neutralization IC50,[22],0.002 µg/mL
same,neutralization IC50,[23],< 0.001 µg/mL
same,neutralization IC50,[24],0.2 µg/mL
same,neutralization IC50,[25],0.04 µg/mL
same,neutralization IC50,[26],0.06 µg/mL
same,neutralization IC80,[27],44.9 µg/mL
same,neutralization IC80,[28],0.16 µg/mL
same,neutralization IC80,[29],0.042 µg/mL
same,neutralization IC50,[30],0.024 µg/mL
same,neutralization IC80,[31],> 50 µg/mL
same,neutralization IC80,[32],0.05 µg/mL
same,neutralization IC80,[33],0.099 µg/mL
same,neutralization IC50,[34],1.33 µg/mL
same,neutralization IC50,[35],< 0.001 µg/mL
same,neutralization IC50,[36],16.4 µg/mL
same,neutralization IC80,[37],> 50 µg/mL
same,neutralization IC50,[38],< 0.001 µg/mL
same,neutralization IC50,[39],< 0.001 µg/mL
same,neutralization IC80,[40],0.11 µg/mL
same,neutralization IC80,[41],0.127 µg/mL
same,neutralization IC80,[42],0.165 µg/mL
same,neutralization IC80,[43],0.13 µg/mL
same,neutralization IC50,[44],0.02 µg/mL
same,neutralization IC50,[45],0.02 µg/mL
same,neutralization IC50,[46],< 0.001 µg/mL
same,neutralization IC50,[47],0.04 µg/mL
same,neutralization IC80,[48],0.005 µg/mL
same,neutralization IC50,[49],0.32 µg/mL
same,neutralization IC80,[50],0.003 µg/mL

# Reference: patent US20130209454A1
